Data as given in patent US20180217151A1.
Values belong to the binder of their own block, whether it stands above or below them.

Key:
[1] = molecular target: CD45RA antigen on human PBMCs (human) (UniProt P08575); experiment: flow cytometry, human PBMCs, biotinylated Fab 1 µg/mL, SA-APC, before washing; median of control (background) 0.1
[2] = molecular target: CD45RA antigen on human PBMCs (human) (UniProt P08575); experiment: flow cytometry, human PBMCs, biotinylated Fab 1 µg/mL, SA-APC, after five washing steps; enables reversible labeling: yes
[3] = molecular target: CD45RA antigen on human PBMCs (human) (UniProt P08575); experiment: flow cytometry, human PBMCs, biotinylated Fab 1 µg/mL, SA-APC, after five washing steps; median of control (background) 0.1; enables reversible labeling: yes
[4] = molecular target: CD8 antigen on human PBMCs (human) (UniProt P01732); experiment: flow cytometry, human PBMCs, biotinylated Fab 1 µg/mL, SA-APC, before washing; median of control (background) 0.1
Sequence of CD8 antigen on human PBMCs (human) (P01732 22-235): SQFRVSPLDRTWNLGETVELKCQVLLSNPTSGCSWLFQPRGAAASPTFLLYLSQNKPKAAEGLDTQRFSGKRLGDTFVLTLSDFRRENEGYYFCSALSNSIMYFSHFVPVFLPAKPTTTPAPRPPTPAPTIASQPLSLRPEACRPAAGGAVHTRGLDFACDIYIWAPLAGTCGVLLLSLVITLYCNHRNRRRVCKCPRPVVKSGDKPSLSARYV

[5] = molecular target: CD8 antigen on human PBMCs (human) (UniProt P01732); experiment: flow cytometry, human PBMCs, biotinylated Fab 1 µg/mL, SA-APC, after five washing steps; enables reversible labeling: no
[6] = molecular target: recombinant CD8 antigen (not stated (the Fab labels human PBMCs)); experiment: SPR (Biacore), recombinant antigen (extracellular domain) immobilized by amine coupling, Fab as analyte, 1:1 binding mass transfer model
Sequence of recombinant CD8 antigen (not stated (the Fab labels human PBMCs)) (P01732 22-182): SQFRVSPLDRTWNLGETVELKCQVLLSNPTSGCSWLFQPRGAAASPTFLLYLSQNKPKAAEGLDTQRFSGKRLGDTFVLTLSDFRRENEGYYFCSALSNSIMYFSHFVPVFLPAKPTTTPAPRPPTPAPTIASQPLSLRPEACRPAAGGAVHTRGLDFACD

[7] = molecular target: CD8 antigen on human PBMCs (human) (UniProt P01732); experiment: flow cytometry, human PBMCs, biotinylated Fab 1 µg/mL, SA-APC, after five washing steps; median of control (background) 0.1; enables reversible labeling: no
[8] = molecular target: CD19 antigen on human PBMCs (human) (UniProt P15391); experiment: flow cytometry on human PBMCs, SA-APC median after five washing steps; background 0.2
Sequence of CD19 antigen on human PBMCs (human) (P15391 20-556): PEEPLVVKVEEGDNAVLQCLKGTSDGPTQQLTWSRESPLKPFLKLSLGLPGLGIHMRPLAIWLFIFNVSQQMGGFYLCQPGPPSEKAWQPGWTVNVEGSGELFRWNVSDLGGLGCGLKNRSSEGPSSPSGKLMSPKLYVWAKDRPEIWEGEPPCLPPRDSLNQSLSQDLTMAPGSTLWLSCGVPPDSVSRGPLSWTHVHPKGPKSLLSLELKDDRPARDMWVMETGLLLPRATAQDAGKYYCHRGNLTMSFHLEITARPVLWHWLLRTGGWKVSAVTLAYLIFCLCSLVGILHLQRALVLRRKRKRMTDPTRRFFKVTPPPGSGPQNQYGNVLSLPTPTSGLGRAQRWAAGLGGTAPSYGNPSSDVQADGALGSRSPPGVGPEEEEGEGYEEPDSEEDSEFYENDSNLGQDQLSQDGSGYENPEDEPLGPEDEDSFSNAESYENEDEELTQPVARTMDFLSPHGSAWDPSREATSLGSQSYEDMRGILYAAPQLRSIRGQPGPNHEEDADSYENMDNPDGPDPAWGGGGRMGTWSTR

[9] = molecular target: CD19 antigen on human PBMCs (human) (UniProt P15391); experiment: flow cytometry, human PBMCs, biotinylated Fab 1 µg/mL, SA-APC, before washing; median of control (background) 0.25
[10] = molecular target: CD19 antigen on human PBMCs (human) (UniProt P15391); experiment: flow cytometry, human PBMCs, biotinylated Fab 1 µg/mL, SA-APC, after five washing steps; enables reversible labeling: yes
[11] = molecular target: recombinant CD19 antigen (not stated (the Fab labels human PBMCs)) (UniProt P15391); experiment: SPR (Biacore), recombinant antigen (extracellular domain) immobilized by amine coupling, Fab as analyte, 1:1 binding mass transfer model
Sequence of recombinant CD19 antigen (not stated (the Fab labels human PBMCs)) (P15391 20-291): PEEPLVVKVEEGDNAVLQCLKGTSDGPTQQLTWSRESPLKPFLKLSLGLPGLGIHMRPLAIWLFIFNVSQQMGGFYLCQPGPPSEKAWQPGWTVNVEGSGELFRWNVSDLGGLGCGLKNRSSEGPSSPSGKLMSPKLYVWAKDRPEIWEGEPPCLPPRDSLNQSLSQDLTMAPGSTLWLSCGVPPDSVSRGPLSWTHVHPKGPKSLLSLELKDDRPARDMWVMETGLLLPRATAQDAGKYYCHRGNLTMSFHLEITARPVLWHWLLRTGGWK

median value (i) [1]: 2.9
% median value of the detected label after Fab removal (before = 100%) [2]: 6.9%
median value after Fab removal (ii) [3]: 0.2
B1: MEM56-LAV rFab (Fab, V domains shown)
VH: QVQLQQSGAELAKPGASVKMSCKASGYNFTRYWMHWIKQRPGQGLEWIGYINPNTGHTEYNQKFKDKATLTADKSSSTAYMQLSSLTSEDSAVYYCATYYYGSRRDAGQGTTLTVSS
VL: QIVLTQSPAIMSASLGERVTMTCTTSSSVSSSYLHWYQQKPGSSPKLWIYSTSNLASGVPARFSGSGSGTSYSLTISTVEAEDAATYYCHQYHRSPLTFGAGTKLELKR
modifications: In the cell assay the Fab was biotinylated with a thiol-reactive reagent (e.g. maleimide-PEO2-biotin) on cysteines of the reduced disulfide bridge; positions not stated.

median value (i) [4]: 45
% median value of the detected label after Fab removal (before = 100%) [5]: 51%
Kd [6]: 0.62 nM
koff [6]: 0.0013 s⁻¹
kon [6]: 2.1e+06 M⁻¹ s⁻¹
median value after Fab removal (ii) [7]: 23
B2: OKT8 pFab (Fab, from another filing, V domains shown)
VH: EVQLQQSGAELVKPGASVKLSCTASGFNIKDTYIHFVRQRPEQGLEWIGRIDPANDNTLYASKFQGKATITADTSSNTAYMHLCSLTSGDTAVYYCGRGYGYYVFDHWGQGTTLTVSS
VL: DVQINQSPSFLAASPGETITINCRTSRSISQYLAWYQEKPGKTNKLLIYSGSTLQSGIPSRFSGSGSGTDFTLTISGLEPEDFAMYYCQQHNENPLTFGAGTKLELK

median of remaining detectable label after removal of Fab [8]: 1.2
median value (i) [9]: 27
% median value of the detected label after Fab removal (before = 100%) [10]: 4.4%
Kd [11]: 7 nM
koff [11]: 0.0031 s⁻¹
kon [11]: 440000 M⁻¹ s⁻¹
B3: SJ25-C1 pFab (Fab, from another filing, V domains shown)
VH: EVKLQQSGAELVRPGSSVKISCKASGYAFSSYWMNWVKQRPGQGLEWIGQIYPGDGDTNYNGKFKGQATLTADKSSSTAYMQLSGLTSEDSAVYFCARKTISSVVDFYFDYWGQGTTVTVSS
VL: DIELTQSPKFMSTSVGDRVSVTCKASQNVGTNVAWYQQKPGQSPKPLIYSATYRNSGVPDRFTGSGSGTDFTLTITNVQSKDLADYFCQQYNRYPYTSGGGTKLEI
